This is an account of results in publication PMC9973331, “DNA Methylation and RNA-DNA Hybrids Regulate the Single-Molecule Localization of a DNA Methyltransferase on the Bacterial Nucleoid”.

This data set concerns the target T1, DnmA (WT) (Bacillus subtilis, UniProt O31504 1-879).
T1 sequence: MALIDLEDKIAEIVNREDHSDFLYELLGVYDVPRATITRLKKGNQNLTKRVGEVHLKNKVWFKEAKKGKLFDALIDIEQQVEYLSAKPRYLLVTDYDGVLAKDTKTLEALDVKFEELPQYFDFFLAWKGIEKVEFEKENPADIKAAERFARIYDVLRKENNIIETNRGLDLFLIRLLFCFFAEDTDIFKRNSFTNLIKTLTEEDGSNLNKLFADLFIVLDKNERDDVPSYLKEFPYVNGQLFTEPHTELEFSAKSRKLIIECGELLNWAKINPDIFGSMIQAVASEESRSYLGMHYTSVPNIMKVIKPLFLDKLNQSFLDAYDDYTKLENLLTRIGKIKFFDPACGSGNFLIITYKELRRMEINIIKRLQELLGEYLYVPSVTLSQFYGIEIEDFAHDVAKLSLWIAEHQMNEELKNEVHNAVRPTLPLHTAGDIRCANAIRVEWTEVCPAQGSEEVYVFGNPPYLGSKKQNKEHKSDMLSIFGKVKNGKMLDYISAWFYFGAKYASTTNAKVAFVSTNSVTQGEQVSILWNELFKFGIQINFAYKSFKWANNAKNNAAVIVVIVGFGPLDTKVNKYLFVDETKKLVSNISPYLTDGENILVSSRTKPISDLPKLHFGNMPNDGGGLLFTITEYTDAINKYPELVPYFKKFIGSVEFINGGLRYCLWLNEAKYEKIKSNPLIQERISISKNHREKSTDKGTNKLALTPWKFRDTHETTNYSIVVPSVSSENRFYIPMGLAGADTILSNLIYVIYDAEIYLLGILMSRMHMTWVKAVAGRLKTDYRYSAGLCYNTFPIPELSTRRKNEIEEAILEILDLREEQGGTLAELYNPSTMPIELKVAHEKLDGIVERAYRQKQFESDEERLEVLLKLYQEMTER
The experiment in a line: EMSA; EMSA: 5x buffer 500 mM Tris-HCl pH 8, 1.25 M NaCl, 10% glycerol (1x: 100 mM Tris, 250 mM NaCl, 2% glycerol), 5 nM probe, 30 min at 25 C; 6% native PAGE in 1x TBE on ice. Conditions: protein: recombinant; tags: His-SUMO tag (pE-SUMO) removed by SUMO protease; label: 5' IRDye700 on strand 1; 5' IRDye800 on strand 2; blunt. (In general: In EMSA bound probe runs differently from free probe, usually more slowly.)

B1: unmethylated dsDNA (oTMN67/oTMN68) (dsDNA)
DNA 1: CAAAACAGGATATGAAATAGTATTGGACGAGAGCTTTTTGGTGGCTTATACTATAG
DNA 2: CTATAGTATAAGCCACCAAAAAGCTCTCGTCCAATACTATTTCATATCCTGTTTTG
As for B1, the “apparent K (half saturation)” value is 36.8 ± 14.2 nM.

B2: methylated dsDNA (oNLF001/oTMN68) (dsDNA)
DNA 1: B1 DNA 1
DNA 2: B1 DNA 2
modifications: m6A in strand 1 (oNLF001), exact position not visible in printed string; presumably in GACGAG
As to B2, the “apparent K (half saturation)” value turned out to be 156 ± 76 nM.

B3: RNA-DNA hybrid (oTMN67/oJRR271) (DNA:RNA)
DNA: B1 DNA 1
RNA: CUAUAGUAUAAGCCACCAAAAAGCUCUCGUCCAAUACUAUUUCAUAUCCUGUUUUG
modifications: strand 2 is RNA
As for B3, the “apparent K (half saturation)” value turned out to be 321 ± 16.5 nM.
